Assay results published in US20120123096 (published 2012).

How the values were obtained:
Assay in all cases: ELONA
Details in all cases: stem-loop (predicted)
[1] = molecular target: Botulinum neurotoxin type B holotoxin (BoNT B HT) (UniProt B1INP5;B1INP5 B1INP5:2-441,B1INP5:442-1291)
[2] = molecular target: Botulinum neurotoxin type A light chain (50 kDa zinc endopeptidase) (UniProt P0DPI1 P0DPI1:2-448)
[3] = molecular target: Botulinum neurotoxin type B light chain (UniProt B1INP5 B1INP5:2-441)
[4] = molecular target: Botulinum neurotoxin type A holotoxin (BoNT A HT) (UniProt P0DPI1;P0DPI1 P0DPI1:2-448,P0DPI1:449-1296)

Measured: binding result

Sequence of Botulinum neurotoxin type B holotoxin (BoNT B HT) (B1INP5 2-441, chain 1 of 2): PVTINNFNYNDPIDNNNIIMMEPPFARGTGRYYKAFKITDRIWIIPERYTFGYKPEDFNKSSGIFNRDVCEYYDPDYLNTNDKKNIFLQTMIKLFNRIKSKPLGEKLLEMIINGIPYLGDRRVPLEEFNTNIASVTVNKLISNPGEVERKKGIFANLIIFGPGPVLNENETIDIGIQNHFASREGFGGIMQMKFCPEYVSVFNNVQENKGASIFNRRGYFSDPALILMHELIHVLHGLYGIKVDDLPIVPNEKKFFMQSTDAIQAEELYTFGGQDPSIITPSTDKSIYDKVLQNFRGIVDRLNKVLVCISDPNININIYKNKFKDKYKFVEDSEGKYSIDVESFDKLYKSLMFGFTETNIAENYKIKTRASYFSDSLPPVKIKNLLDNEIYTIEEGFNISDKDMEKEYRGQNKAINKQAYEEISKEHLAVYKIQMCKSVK
Sequence of Botulinum neurotoxin type B holotoxin (BoNT B HT) (B1INP5 442-1291, chain 2 of 2): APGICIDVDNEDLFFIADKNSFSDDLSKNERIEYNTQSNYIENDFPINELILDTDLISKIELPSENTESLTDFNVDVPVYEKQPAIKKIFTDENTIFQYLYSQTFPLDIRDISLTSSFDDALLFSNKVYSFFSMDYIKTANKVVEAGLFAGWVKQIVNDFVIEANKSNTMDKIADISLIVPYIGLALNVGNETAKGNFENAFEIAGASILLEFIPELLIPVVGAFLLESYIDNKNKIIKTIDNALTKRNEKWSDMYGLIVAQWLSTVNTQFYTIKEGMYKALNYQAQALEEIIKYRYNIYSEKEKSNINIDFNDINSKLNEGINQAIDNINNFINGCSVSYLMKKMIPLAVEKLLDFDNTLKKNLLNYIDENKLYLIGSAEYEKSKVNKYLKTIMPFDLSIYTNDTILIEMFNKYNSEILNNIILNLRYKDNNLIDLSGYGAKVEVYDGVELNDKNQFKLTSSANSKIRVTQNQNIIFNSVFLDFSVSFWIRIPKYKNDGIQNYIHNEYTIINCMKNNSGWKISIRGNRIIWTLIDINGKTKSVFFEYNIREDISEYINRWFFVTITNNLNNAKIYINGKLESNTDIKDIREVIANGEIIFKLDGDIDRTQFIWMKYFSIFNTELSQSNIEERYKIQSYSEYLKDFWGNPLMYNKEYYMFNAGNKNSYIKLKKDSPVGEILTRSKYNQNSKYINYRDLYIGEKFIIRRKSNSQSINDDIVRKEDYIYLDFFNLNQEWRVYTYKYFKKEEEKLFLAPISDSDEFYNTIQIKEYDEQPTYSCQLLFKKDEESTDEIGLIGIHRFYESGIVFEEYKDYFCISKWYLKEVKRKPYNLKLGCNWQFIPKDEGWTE
Sequence of Botulinum neurotoxin type B light chain (B1INP5 2-441, one chain of several): as the sequence (B1INP5 2-441, chain 1 of 2) above
Sequence of Botulinum neurotoxin type A holotoxin (BoNT A HT) (P0DPI1 2-448, chain 1 of 2): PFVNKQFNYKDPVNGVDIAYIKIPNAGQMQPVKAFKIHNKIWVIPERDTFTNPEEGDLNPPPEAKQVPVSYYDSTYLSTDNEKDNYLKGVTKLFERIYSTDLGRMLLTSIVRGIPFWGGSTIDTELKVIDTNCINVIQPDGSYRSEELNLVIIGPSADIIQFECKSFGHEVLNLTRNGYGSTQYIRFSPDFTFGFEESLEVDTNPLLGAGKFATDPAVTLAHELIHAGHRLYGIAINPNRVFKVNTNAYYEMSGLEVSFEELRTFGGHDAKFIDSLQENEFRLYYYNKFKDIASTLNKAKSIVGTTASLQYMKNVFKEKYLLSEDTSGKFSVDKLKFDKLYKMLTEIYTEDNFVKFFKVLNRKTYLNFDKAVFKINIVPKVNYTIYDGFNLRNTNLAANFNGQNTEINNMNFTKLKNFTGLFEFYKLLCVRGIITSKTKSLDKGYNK
Sequence of Botulinum neurotoxin type A holotoxin (BoNT A HT) (P0DPI1 449-1296, chain 2 of 2): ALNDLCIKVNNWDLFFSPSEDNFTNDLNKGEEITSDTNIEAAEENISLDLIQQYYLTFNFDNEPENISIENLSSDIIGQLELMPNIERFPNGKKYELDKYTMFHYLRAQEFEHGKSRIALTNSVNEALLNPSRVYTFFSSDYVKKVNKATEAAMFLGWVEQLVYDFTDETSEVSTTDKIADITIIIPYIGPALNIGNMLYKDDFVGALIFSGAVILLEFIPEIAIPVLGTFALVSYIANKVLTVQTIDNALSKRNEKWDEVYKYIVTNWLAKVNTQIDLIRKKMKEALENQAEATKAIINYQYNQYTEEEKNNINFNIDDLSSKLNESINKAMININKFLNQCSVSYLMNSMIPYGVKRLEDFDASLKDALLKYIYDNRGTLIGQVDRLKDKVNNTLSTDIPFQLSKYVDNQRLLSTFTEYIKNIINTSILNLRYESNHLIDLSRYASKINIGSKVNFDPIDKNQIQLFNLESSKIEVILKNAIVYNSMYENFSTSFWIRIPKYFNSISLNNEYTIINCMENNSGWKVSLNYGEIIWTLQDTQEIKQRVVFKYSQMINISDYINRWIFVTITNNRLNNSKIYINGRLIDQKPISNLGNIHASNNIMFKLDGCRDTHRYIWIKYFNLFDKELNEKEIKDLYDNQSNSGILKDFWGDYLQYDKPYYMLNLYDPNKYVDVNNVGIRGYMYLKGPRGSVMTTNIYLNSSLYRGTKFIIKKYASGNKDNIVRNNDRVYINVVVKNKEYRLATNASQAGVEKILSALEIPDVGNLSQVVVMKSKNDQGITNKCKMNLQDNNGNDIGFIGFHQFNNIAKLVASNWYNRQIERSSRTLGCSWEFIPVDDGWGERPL
Sequence of Botulinum neurotoxin type A light chain (50 kDa zinc endopeptidase) (P0DPI1 2-448, one chain of several): as the sequence (P0DPI1 2-448, chain 1 of 2) above

B1: BoNT A/B LC aptamer (ssDNA)
DNA: CATCCGTCACACCTGCTCTGATCAGGGAAGACGCCAACACTGGTGTTGGCTCCCGTATCA
binds: all assays above

B2: BoNT A/B HT aptamer (ssDNA)
DNA: CATCCGTCACACCTGCTCTGCTATCACATGCCTGCTGAAGTGGTGTTGGCTCCCGTATCA
binds: all assays above
